The values that follow come from publication PMC5317049, “Ex vivo^18O-labeling mass spectrometry identifies a peripheral amyloid β clearance pathway” (Molecular Neurodegeneration, 2017).

Test [1] has as its target T1, insulin-degrading enzyme (IDE) (Homo sapiens, UniProt P14735).
T1 construct: purchased Sigma
Put plainly: Inhibition of IDE activity by insulin. The class given is biochemical. To be noted: increasing insulin (0.1, 1 or 10 μM), PBS spiked with Aβ1-40 Arg13C15N, overnight, room temperature; IP-MALDI MS (Fig. 5c). As to the method:
[…] The samples were incubated overnight at room temperature. Immunoprecipitation and mass spectrometry were conducted as described above.

In the next test the target is T2, Aβ1-40 (Homo sapiens, UniProt P05067).
T2 construct: To 1 ml PBS containing isotopic labeled Aβ1-40 (0.016 μM) 4 μg of each of the recombinant antibodies; purchased Anaspec, Inc
Put plainly: Effect of antibodies on Aβ degradation in 5% serum. The test is classed as biochemical. To be noted: 4 μg recombinant antibody in 1 ml PBS with 0.016 μM labeled Aβ1-40, 1 h pre-incubation, then 5% serum overnight, room temperature; IP-MALDI MS. As to the method:
The antibodies were expressed and purified as previously described. Each sample was spiked with serum (5%, end concentration) followed by incubation overnight at room temperature. The samples were placed in a 100 °C heating block for five minutes to disrupt potential antibody/Aβ complexes, and subsequently centrifuged for 10 min at 4 °C (31.000 x g). The supernatants were transferred to new tubes and Aβ peptides were immunoprecipitated and analyzed by mass spectrometry as described above.

The next test has as its system plasma Aβ. Particulars: anti-amyloid treatment; 45 (solanezumab), 9, 22 (ponezumab), 7; cited from earlier work. The text has this:
To explore this hypothesis, we tested the effect of recombinant versions of the antibodies solanezumab, ba ...

For a further test, the system named is IDE. To be noted: EDTA in plasma collection tubes; cited from earlier work.
The next test deals with Aβ. To be noted: than solanezumab; cited from earlier work.

“insulin: insulin added as competing substrate to inhibit IDE-mediated proteolytic activity”: in test [1], the “inhibition of IDE-mediated proteolysis of Aβ1-40 Arg13C15N” value was “abundance of Aβ1-20 decreased with increasing insulin concentration”.
Consider “solanezumab: recombinant version of the mid-domain anti-Aβ antibody solanezumab”, for which, in the test with Aβ1-40, the “effect on proteolytic degradation of Aβ1-40 in serum” value was “effectively abrogated”. For the same molecule, the “increase of plasma Aβ concentration compared to physiological levels” value in the test on plasma Aβ is “up to thousand-fold”.
For `O=C(O)CN(CCN(CC(=O)O)CC(=O)O)CC(=O)O` [EDTA], the “effect on IDE proteolytic activity” value in the test on IDE is “inhibit IDE proteolytic activity”.
As to “crenezumab: recombinant anti-Aβ antibody crenezumab”, the “affinity for Aβ compared with solanezumab” value in the test with Aβ is listed as “much lower affinity”. For the same molecule, in the test with Aβ1-40, the “effect on proteolytic degradation of Aβ1-40 in serum” value was “did not block the degradation”.

B1: ponezumab: C-terminal (Aβ X-40) antibody ponezumab (antibody, chains of the INN, looked up, V domains shown)
VH: QVQLVQSGAEVKKPGASVKVSCKASGYYTEAYYIHWVRQAPGQGLEWMGRIDPATGNTKYAPRLQDRVTMTRDTSTSTVYMELSSLRSEDTAVYYCASLYSLPVYWGQGTTVTVSS
VL: DVVMTQSPLSLPVTLGQPASISCKSSQSLLYSDAKTYLNWFQQRPGQSPRRLIYQISRLDPGVPDRFSGSGSGTDFTLKISRVEAEDVGVYYCLQGTHYPVLFGQGTRLEIK
For B1, in the test with plasma Aβ, the “increase of plasma Aβ concentration compared to physiological levels” value is given as “up to thousand-fold”.
